# Entries after “also recorded” stand apart in the source; their conditions may differ.
# Legend:
# [1] = biological target: T1, association of GAL3 and TIM3 (Homo sapiens, UniProt P17931); test: GAL3-TIM3 blocking ELISA (Examples 24, 27); type: binding; conditions: 3 ug/mL antibody
# T1 construct: full-length human Galectin-3 protein (Acro Biosystems, GA3-H5129); linker-spaced 6-histidine tag; purchased Acro Biosystems GA3-H5129 (Gal3); TM3-H5229 (TIM-3)
# Method: Positively scoring wells were evaluated for the ability to block association of GAL3 and TIM3. To identify GAL3-targeted antibodies with the ability to block the interaction of GAL3 and TIM3, purified GAL3 and TIM3 proteins were incubated in the presence of GAL3-immunization hybridoma supernatants described above, or without antibody, and protein interaction was evaluated by ELISA. Human Galectin-3 protein (Acro Biosystems, GA3-H5129) was diluted in PBS (Corning, 21-030-CM) to a concentration of 3 μg/ml and added to the wells of a 96-well ELISA plate (Thermo Fisher, 44-2404-21). After incubating the plate at 4° C. overnight, the plate was washed three times with PBST (PBS with 0.05% Tween 20 [VWR, 0777]). The plate was then blocked for an hour with 2% BSA (EMD Millipore, 126609) in PBST at room temperature with gentle rocking. Thereafter, the 2% BSA in PBST was discarded and antibody or inhibitor (3-fold dilutions beginning at 20 μg/ml, 60 μg/ml, or 180 μM) in 2% BSA in PBST was added to the wells. Afterwards, 2 μg/ml of human TIM3 (Aero Biosystems, TM3-H5229) in 2% BSA in PBST was added to the antibody or inhibitor in the wells in a 1:1 ratio. The plate was incubated for an hour at room temperature with gentle rocking. Thereafter, the plate was washed three times with PBST, and 0.3 μg/ml of human TIM3 Biotinylated Antibody (R&D Systems, BAF2365) in 2% BSA in PBST was added to the wells. The plate was incubated for an hour with gentle rocking and then washed three times with PBST. Avidin-HRP (1:2000) was then added to the wells. The plate was incubated at room temperature for an hour with gentle rocking and then washed three times with PBST. TMB substrate (Thermo Scientific, 34029) was then added to each well. The reaction was stopped with 1M HCl (JT Baker, 5620-02) and read using a plate reader (Molecular Devices) at absorbance of 450 nm.
# human Gal3-His = human Gal3-His (Homo sapiens, UniProt P17931); test: Antibody binning by biolayer interferometry (Gator); type: binding; conditions: antibody competition
# Method: To determine whether Gal3-binding antibodies with Gal3-TIM3 blocking activity bind to the same or overlapping regions of the Gal3 molecule, antibody binning assays were performed to assess the ability of antibodies to simultaneously bind Gal3. Amine-reactive probes were loaded onto a Gator biosensor (Probe Life, Palo Alto, Calif.), equilibrated in dH20 for 60 seconds, dipped into 100 μl EDC 0.2M/NHS 0.05M activation buffer for 30 seconds, then dipped into a solution of […] human Gal3-His in 10 mM NaOAc buffer, pH 5 until binding was saturated, and quenched in 1 M ethanolamine pH 8.5 for 300 seconds. Following Gal3-His loading, tips were dipped in 20 μg/mL saturating antibody, then successively dipped into 5 μg/mL competing antibody.
# Galectin-3 = Galectin-3 (Homo sapiens, UniProt P17931); test: SPR (BiacoreT200) binding affinity; conditions: 25° C., read-out: hGal-3 KD
# Method: GAL3-binding antibodies were evaluated for their binding affinity by SPR. Kinetics experiments were performed on BiacoreT200 at 25° C. in high performance mode. Ligand proteins, purified antibodies were captured onto a CM5 chip coupled with anti-human Fc or anti-mouse Fc antibody, three antibodies at a time onto flow cell #2, 3, and 4, respectively, while flow cell #1 was used as reference. The analyte Galectin-3 in HBS-EP buffer was injected over all four flow cells at concentrations of 100, 50, 25, 12.5, 6.25, 3.125 and 0 nM at a flow rate of 30 μL/min. The complex was allowed to associate and dissociate for 240 and 300 seconds, respectively. The surfaces were regenerated with a 30 second injection of 10 mM Glycine pH 1.7 (flow rate 30 μL/min). The data were fit to a simple 1:1 interaction model using the global data analysis option available within BiacoreT200 Evaluation software V2.0. The affinity of Gal3 monoclonal antibodies was confirmed to be […] 30 nM for all antibodies studied (Table 24.1). Antibodies with affinity less than 2E-7 were selected for further characterization.
# hGal3 peptide = test: Gal3 peptide library ELISA (Example 25); type: binding, human; conditions: for Epitope Mapping: hGal3 peptide No. bound; for Gal3 peptide bound: peptide array ELISA
# Method: To identify the epitopes to which Gal3 antibodies with and without Gal3-TIM3 blocking activity bound, a library of 20 amino acid peptides representing portions of Gal3, summarized in Table 24.1, was produced and the ability to bind Gal3 antibodies was evaluated by ELISA.
# At least 2 μg/ml of hGal3 peptide in 50 μl of PBS or 0.1 μg/ml of full-length human Gal3 protein (GenScript) and human Galectin-3 protein (Acro Biosystems, GA3-H5129) were diluted in PBS (Corning, 21-030-CM) to concentrations of at least 2 μg/ml or 0.1 μg/ml, respectively, and added to the wells of a 96-well ELISA plate (Thermo Fisher, 44-2404-21). After incubating the plate at 4° C. overnight, the plate was washed three times with PBST (PBS with 0.05% Tween 20 [VWR, 0777]). The plate was then blocked for an hour with 2% BSA (EMD Millipore, 126609) in PBST at room temperature with gentle rocking. Thereafter, the 2% BSA in PBST was discarded and human Galectin-3 hybridoma supernatants or antibodies were diluted in 2% BSA in PBST to concentrations of at least 0.1 μg/ml and added to the wells. The plate was incubated for an hour at room temperature with gentle rocking and then washed three times with PBST. Afterwards, Goat Anti-Mouse IgG-HRP (Jackson ImmunoResearch, 115-036-1461) or Goat Anti-Rat IgG HRP (abcam, ab205720) diluted in 2% BSA in PBST (1:4000) were added to the wells. The plate was incubated for 30 minutes to 1 hour at room temperature with gentle rocking and then washed three times with PB ST. TMB substrate (Thermo Scientific, 34029) was then added to each well. The reaction was stopped with 1M HCl (JT Baker, 5620-02) and read using a plate reader (Molecular Devices) at absorbance of 450 nm.
# Galectin-3, sequence (P17931 whole entry): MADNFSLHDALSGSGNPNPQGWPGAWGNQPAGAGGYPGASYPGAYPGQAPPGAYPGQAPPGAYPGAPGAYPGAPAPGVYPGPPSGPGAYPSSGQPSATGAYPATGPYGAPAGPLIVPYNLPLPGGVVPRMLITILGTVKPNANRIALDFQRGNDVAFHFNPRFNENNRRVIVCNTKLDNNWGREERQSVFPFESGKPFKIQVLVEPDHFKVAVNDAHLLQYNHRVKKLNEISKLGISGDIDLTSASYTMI
# human Gal3-His, sequence (P17931 whole entry): as above
# T1 sequence (P17931 2-250 limits assumed): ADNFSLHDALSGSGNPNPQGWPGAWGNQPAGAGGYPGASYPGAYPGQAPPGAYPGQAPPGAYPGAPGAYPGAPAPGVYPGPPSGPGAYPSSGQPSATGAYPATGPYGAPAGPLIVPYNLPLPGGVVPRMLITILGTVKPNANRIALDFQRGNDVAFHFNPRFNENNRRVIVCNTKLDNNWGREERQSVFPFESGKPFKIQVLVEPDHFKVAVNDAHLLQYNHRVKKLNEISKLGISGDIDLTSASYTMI
Molecule,GAL3-TIM3 Blocking @ 3 ug/mL [1],Bin (human Gal3-His),Kd (Galectin-3),Epitope Mapping (hGal3 peptide),Gal3 peptide bound (hGal3 peptide)
"846.1F5: murine anti-Gal3 antibody (antibody, V domains shown) VH: QIQLVQSGPELKKPGETVKISCKASGYTFTNYGMNWVKQAPGKGLKWMGWINTYTGEPSYADDFKGRFAFSLETSASTAYLQINNLKNEDMATYFCARWGGYDGDYYAMDYWGQGTSVTVSS VL: NIMMTQSPSSLAVSAGEKVTMSCKSSQSVLYSSNQKNYLAWYQQKPGQSPKLLIYWASTRESGVPDRFTGSGSGTDFTLTISSVQPEDLAVYYCHQYLSSLTFGAGTKLELK",90%,3,2.73 nM,6,peptide 6
"15F10.2D6: murine anti-Gal3 antibody (antibody, V domains shown) VH: EVQLVESGGGLVKPGGSLKLSCAASGFAFSSYAMSWVRQTPEKRLEWVATISDGGVYTYYTDHVKGRFTISRDNAEDNLYLQMSHLKSEDTAMYYCVRDGGYWGQGTTLTVSS VL: DVLMTQTPLSLPVSLGDQASISCRSSQSIVHNNGNTYLEWYLQKPGQSPKLLIYKVSNRFSGVPDRFSGSGSGTDFTLKISRVEAEDLGVYYCFQGSHVPLTFGGGTKLELK",19%,8,2.06 nM,"2,7",peptide 7
"20D11.2C6: murine anti-Gal3 antibody (antibody, V domains shown) VH: EVQLQQSGPELVKPGASVKISCKASGYTFTDFYINWVKQSHGKSLEWIGDINPKNGGINYNPKFKIKATLTVDKSSSTSYMDLRGLTSEDSAVYYCTSGYGFPYWGQGTLVTVSA VL: DIQMNQSPSSLSASLGDTITITCRASQNIYIWLSWYQQKPGNIPKLLIYKASNLHTGVPSRFSGSGSGTDFTLTISTLQPEDIATYFCLQGQSYPLTFGAGTKLEMK",40%,5,27.8 nM,,peptide 1; also recorded: peptide 7
"19B5.2E6: murine anti-Gal3 antibody (antibody, V domains shown) VH: QIQLVQSGPELKKPGETVKISCKASGYTFTTYAMSWVKQAPGKGLKWMGWINTYSGVPTYADDLKGRFAFSLETSASTAYLQINNLKNEDTATYFCARGPYAMDYWGQGTSVTVSS VL: DIQMTQTTSSLSASLGDRVTISCSASQGINNYLNWYQQKPDGTVKLLIYYASSLHSGVPSRFSGSGSGTDYSLTISNLEPEDIATYYCQQYSQVPYTFGSGTKLEIK",61%,4,< 1 nM,"1,7",peptide 1; also recorded: peptide 7
"23H9.2E4: murine anti-Gal3 antibody (antibody, V domains shown) VH: QIQLVQSGPELKKPGETVKISCKASGYTFTTYAMSWVKQAPGKGLKWMGWINTYSGVPTYADDLKGRFAFSLETSASTAYLQINNLKNEDTATYFCARGPYAMDYWGQGTSVTVSS VL: DIQMTQTTSSLSASLGDRVTISCSASQGINNYLNWYQQKPDGTVKLLIYYASSLHSGVPSRFSGSGSGTDYSLTISNLEPEDIATYYCQQYSQVPYTFGSGTKLEIK",80%,4,4.26 nM,"1,7",peptide 1; also recorded: peptide 7
"12G5.D7: murine anti-Gal3 antibody (antibody, V domains shown, VH of 12G5.D7; VL of 12G5.D7, murine anti-Gal3 antibody) VH: QVQLKQSGAELVRPGASVKLSCKASGYTFTDYYINWVKQRPGQGLEWIARIYPGTGNTDYNEKFKGRATLTAEKSSSTAYMQLSSLTSEDSAVYFCARFAYYYGSGGYFDYWGHGTTLTVSS VL: DILMTQSPSSMSVSLGDTVSITCHASQGINSNMGWLQQKPGKSFKGLIYHATNLEDGVPSRFSGSGSGADYSLTISSLESEDFADYYCVQYAQFPPTFGSGTKLEIK",12%,10,1.9 nM,Non-linear,
"24D12.2H9: murine anti-Gal3 antibody (antibody, V domains shown, VH of 24D12.2H9; VL of 24D12.2H9, murine anti-Gal3 antibody) VH: QVQLKQSGPGLVQPSQSLSITCTVSGFSLTSYGVHWVRQAPGKGLEWLGVIWSGGSTDYNAAFMSRLSISKDNSKSQVFFKMNSLQADDTAIYYCAKSPDGYDVAWFGYWGQGTLVTVSA VL: DIVMTQSHKFMSTSVGDRVSITCKASQDVRTAVAWYQQKPGQSPKLLIYWASTRHTGVPDRFTGSGSGTDFTLTLSNVQSEDLADYFCQQYSSYPWTFGGGTKLEIK",0%,11,4.13 nM,Non-linear,
